Our source for the half-time of β2m dissociation (r1) values is article PMC12630360.

Experiment [1] concerns the target HLA class I heavy chains of HeLa/US6 cells (the H of HLA-Hβ in the BFA/temperature upshift decays) (human (endogenous in HeLa)). Nature of the experiment: flow cytometry on cells; BFA/temperature upshift decays: cells overnight at 25 °C, 10 μg/ml brefeldin A, then 37 °C for the indicated times; surface Hβ and fH followed with conformation-specific mAbs; half-times fitted (by hand or Solver) with a first-order in silico model.

In experiment [2] the target is H-2L^d heavy chain (free heavy chain, L^d-fH, when without β2m and peptide) (mouse). Described as above.
Chain of H-2L^d heavy chain (free heavy chain, L^d-fH, when without β2m and peptide) (mouse) (P01897 25-362): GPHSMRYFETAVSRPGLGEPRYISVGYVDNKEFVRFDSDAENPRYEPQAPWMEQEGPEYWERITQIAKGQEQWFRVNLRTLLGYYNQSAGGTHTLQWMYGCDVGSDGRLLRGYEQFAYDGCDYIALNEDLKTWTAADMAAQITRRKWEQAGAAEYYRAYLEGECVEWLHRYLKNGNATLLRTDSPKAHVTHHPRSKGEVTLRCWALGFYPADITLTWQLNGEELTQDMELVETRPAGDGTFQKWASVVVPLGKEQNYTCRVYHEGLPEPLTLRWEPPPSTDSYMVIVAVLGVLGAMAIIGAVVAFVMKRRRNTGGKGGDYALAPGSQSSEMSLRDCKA

On to “beta-2 microglobulin of HeLa/US6 cells (from UniProt P61769 21-119) (natural protein)”, for which the half-time of β2m dissociation (r1) at 37 °C in experiment [1] was 10 min.
Regarding “beta-2 microglobulin of STF1 cells (from UniProt P61769 21-119) (natural protein)”, the half-time of β2m dissociation (r1) at 37 °C in experiment [2] was 3 min.
